In the supplement of paper PMC9112550, “Optimization of the antimicrobial peptide Bac7 by deep mutational scanning” (BMC Biology, 2022):

Tested on: Escherichia coli TOP10
Assay: shrunken log2 fold change of peptide-encoding DNA abundance (4.5 h post-induction vs induction); higher = less antimicrobial activity (less host growth inhibition)
Conditions: time post-induction: 4.5 h; library: site-saturation at positions 5, 18, 19, 20
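Also: peptides expressed intracellularly from a pBAD plasmid library in pooled LB shake-flask culture, induced with 0.3% L-arabinose, DNA abundance read by NGS, three biological replicates, DESeq2 with apeglm shrinkage.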

In the case of RRIRIRPPRLPRPRPRPHDPPRP, the “shrunken log2 fold change” value is reported as -0.296.
With RRIRCRPPRLPRPRPRPENMPRP the “shrunken log2 fold change” value was -0.57.
In the case of RRIRDRPPRLPRPRPRPHHKPRP, the “shrunken log2 fold change” value is reported as -0.397.
RRIRGRPPRLPRPRPRPGKCPRP was tested, and the “shrunken log2 fold change” value was -0.0229.
For RRIRVRPPRLPRPRPRPWVSPRP, the “shrunken log2 fold change” value was -0.278.
For RRIRRRPPRLPRPRPRPWCWPRP, the “shrunken log2 fold change” value was 0.123.
In the case of RRIRTRPPRLPRPRPRPNGEPRP, the “shrunken log2 fold change” value is reported as -0.12.
In the case of RRIRARPPRLPRPRPRPVVFPRP, the “shrunken log2 fold change” value is reported as 0.213.
For RRIRARPPRLPRPRPRPTMNPRP, the “shrunken log2 fold change” value was 0.0878.
With RRIRWRPPRLPRPRPRPDYKPRP the “shrunken log2 fold change” value was -0.0643.
In the case of RRIRARPPRLPRPRPRPHNRPRP, the “shrunken log2 fold change” value is reported as -0.00621.
RRIRMRPPRLPRPRPRPSREPRP was tested, and the “shrunken log2 fold change” value was 0.545.
With RRIRVRPPRLPRPRPRPLCEPRP the “shrunken log2 fold change” value was -0.131.
With RRIRRRPPRLPRPRPRPQCFPRP the “shrunken log2 fold change” value was 0.212.
With RRIRGRPPRLPRPRPRPQEVPRP the “shrunken log2 fold change” value was 0.00966.
RRIRNRPPRLPRPRPRPGAVPRP was tested, and the “shrunken log2 fold change” value was 0.248.
In the case of RRIRIRPPRLPRPRPRPLYQPRP, the “shrunken log2 fold change” value is reported as -0.904.
RRIRQRPPRLPRPRPRPPKKPRP was tested, and the “shrunken log2 fold change” value was -0.0474.
For RRIRVRPPRLPRPRPRPESYPRP, the “shrunken log2 fold change” value was 0.45.
With RRIRARPPRLPRPRPRPTHFPRP the “shrunken log2 fold change” value was 0.809.
RRIRFRPPRLPRPRPRPDLGPRP was tested, and the “shrunken log2 fold change” value was 0.106.
For RRIRVRPPRLPRPRPRPKWDPRP, the “shrunken log2 fold change” value was 0.0182.
For RRIRTRPPRLPRPRPRPYMFPRP, the “shrunken log2 fold change” value was -0.776.
In the case of RRIRIRPPRLPRPRPRPTWFPRP, the “shrunken log2 fold change” value is reported as 0.159.
RRIRIRPPRLPRPRPRPGHEPRP was tested, and the “shrunken log2 fold change” value was 0.018.
In the case of RRIRCRPPRLPRPRPRPSAAPRP, the “shrunken log2 fold change” value is reported as 0.386.
For RRIRIRPPRLPRPRPRPKWNPRP, the “shrunken log2 fold change” value was -0.454.
With RRIRSRPPRLPRPRPRPCPRPRP the “shrunken log2 fold change” value was 0.056.
RRIRTRPPRLPRPRPRPTFDPRP was tested, and the “shrunken log2 fold change” value was -0.0153.
With RRIRTRPPRLPRPRPRPFMHPRP the “shrunken log2 fold change” value was -0.547.
For RRIRCRPPRLPRPRPRPWMDPRP, the “shrunken log2 fold change” value was -0.169.
For RRIRERPPRLPRPRPRPNELPRP, the “shrunken log2 fold change” value was -0.0227.
For RRIRNRPPRLPRPRPRPYSAPRP, the “shrunken log2 fold change” value was -1.37.
With RRIRTRPPRLPRPRPRPNLGPRP the “shrunken log2 fold change” value was 0.152.
In the case of RRIRWRPPRLPRPRPRPNHPPRP, the “shrunken log2 fold change” value is reported as -0.0659.
RRIRWRPPRLPRPRPRPWLWPRP was tested, and the “shrunken log2 fold change” value was 0.242.
With RRIRWRPPRLPRPRPRPHNFPRP the “shrunken log2 fold change” value was -0.0122.
With RRIRCRPPRLPRPRPRPPTAPRP the “shrunken log2 fold change” value was 0.272.
RRIRRRPPRLPRPRPRPNCQPRP was tested, and the “shrunken log2 fold change” value was 0.0764.
RRIRQRPPRLPRPRPRPCFYPRP was tested, and the “shrunken log2 fold change” value was -0.269.
For RRIRHRPPRLPRPRPRPKDAPRP, the “shrunken log2 fold change” value was -0.112.
With RRIRIRPPRLPRPRPRPNVTPRP the “shrunken log2 fold change” value was -0.149.
For RRIRYRPPRLPRPRPRPSCQPRP, the “shrunken log2 fold change” value was -0.296.
With RRIRYRPPRLPRPRPRPPTMPRP the “shrunken log2 fold change” value was -0.352.
With RRIRLRPPRLPRPRPRPPGDPRP the “shrunken log2 fold change” value was 0.834.
In the case of RRIRPRPPRLPRPRPRPADQPRP, the “shrunken log2 fold change” value is reported as 0.00426.
With RRIRHRPPRLPRPRPRPEAEPRP the “shrunken log2 fold change” value was 0.409.
For RRIRGRPPRLPRPRPRPWLVPRP, the “shrunken log2 fold change” value was 0.422.
In the case of RRIRFRPPRLPRPRPRPKIAPRP, the “shrunken log2 fold change” value is reported as -0.0112.
RRIRSRPPRLPRPRPRPMAQPRP was tested, and the “shrunken log2 fold change” value was 0.112.
In the case of RRIRRRPPRLPRPRPRPDINPRP, the “shrunken log2 fold change” value is reported as -0.243.
RRIRNRPPRLPRPRPRPYRSPRP was tested, and the “shrunken log2 fold change” value was -0.0179.
With RRIRVRPPRLPRPRPRPTMNPRP the “shrunken log2 fold change” value was -0.353.
RRIRIRPPRLPRPRPRPCREPRP was tested, and the “shrunken log2 fold change” value was -0.0225.
For RRIRYRPPRLPRPRPRPIIYPRP, the “shrunken log2 fold change” value was -0.522.
With RRIRNRPPRLPRPRPRPYTKPRP the “shrunken log2 fold change” value was -0.0607.
For RRIRFRPPRLPRPRPRPWDSPRP, the “shrunken log2 fold change” value was -0.21.
With RRIRTRPPRLPRPRPRPSMEPRP the “shrunken log2 fold change” value was -0.136.
RRIRTRPPRLPRPRPRPAPGPRP was tested, and the “shrunken log2 fold change” value was 0.544.
For RRIRRRPPRLPRPRPRPVEFPRP, the “shrunken log2 fold change” value was 0.0107.
RRIRCRPPRLPRPRPRPVPAPRP was tested, and the “shrunken log2 fold change” value was 0.457.
For RRIRYRPPRLPRPRPRPHYKPRP, the “shrunken log2 fold change” value was -0.316.
With RRIRERPPRLPRPRPRPGPKPRP the “shrunken log2 fold change” value was -0.00801.
In the case of RRIRQRPPRLPRPRPRPNVSPRP, the “shrunken log2 fold change” value is reported as 0.00422.
With RRIRGRPPRLPRPRPRPPQSPRP the “shrunken log2 fold change” value was 1.27.
With RRIRNRPPRLPRPRPRPMREPRP the “shrunken log2 fold change” value was 0.13.
RRIRNRPPRLPRPRPRPLLNPRP was tested, and the “shrunken log2 fold change” value was -0.443.
With RRIRYRPPRLPRPRPRPHDWPRP the “shrunken log2 fold change” value was -0.0744.
With RRIRCRPPRLPRPRPRPVCWPRP the “shrunken log2 fold change” value was 0.401.
For RRIRNRPPRLPRPRPRPKKRPRP, the “shrunken log2 fold change” value was 0.201.
With RRIRFRPPRLPRPRPRPLCYPRP the “shrunken log2 fold change” value was -0.557.
For RRIRFRPPRLPRPRPRPSQYPRP, the “shrunken log2 fold change” value was -0.292.
In the case of RRIRTRPPRLPRPRPRPQDPPRP, the “shrunken log2 fold change” value is reported as 0.167.
With RRIRCRPPRLPRPRPRPLPKPRP the “shrunken log2 fold change” value was 0.258.
For RRIRWRPPRLPRPRPRPVRVPRP, the “shrunken log2 fold change” value was 0.214.
With RRIRGRPPRLPRPRPRPMFHPRP the “shrunken log2 fold change” value was 0.074.
In the case of RRIRQRPPRLPRPRPRPMIKPRP, the “shrunken log2 fold change” value is reported as -0.318.
For RRIRFRPPRLPRPRPRPNWLPRP, the “shrunken log2 fold change” value was -0.0999.
For RRIRHRPPRLPRPRPRPYHHPRP, the “shrunken log2 fold change” value was -0.607.
With RRIRYRPPRLPRPRPRPFKAPRP the “shrunken log2 fold change” value was -0.55.
For RRIRLRPPRLPRPRPRPFTAPRP, the “shrunken log2 fold change” value was -0.625.
In the case of RRIRQRPPRLPRPRPRPDIGPRP, the “shrunken log2 fold change” value is reported as -0.0932.
With RRIRARPPRLPRPRPRPYFTPRP the “shrunken log2 fold change” value was -0.71.
For RRIRPRPPRLPRPRPRPNGFPRP, the “shrunken log2 fold change” value was -0.216.
With RRIRERPPRLPRPRPRPKYHPRP the “shrunken log2 fold change” value was -0.57.
With RRIRNRPPRLPRPRPRPGFRPRP the “shrunken log2 fold change” value was 0.114.
In the case of RRIRHRPPRLPRPRPRPLWKPRP, the “shrunken log2 fold change” value is reported as -0.102.
With RRIRPRPPRLPRPRPRPCIDPRP the “shrunken log2 fold change” value was -0.742.
RRIRDRPPRLPRPRPRPDAHPRP was tested, and the “shrunken log2 fold change” value was -0.036.
For RRIRTRPPRLPRPRPRPFDKPRP, the “shrunken log2 fold change” value was -0.154.
In the case of RRIRLRPPRLPRPRPRPGAIPRP, the “shrunken log2 fold change” value is reported as 0.0769.
RRIRVRPPRLPRPRPRPYAEPRP was tested, and the “shrunken log2 fold change” value was -0.0642.
With RRIRLRPPRLPRPRPRPHMFPRP the “shrunken log2 fold change” value was -0.356.
For RRIRPRPPRLPRPRPRPCRFPRP, the “shrunken log2 fold change” value was 0.086.
In the case of RRIRHRPPRLPRPRPRPFSFPRP, the “shrunken log2 fold change” value is reported as -0.363.
In the case of RRIRWRPPRLPRPRPRPWNAPRP, the “shrunken log2 fold change” value is reported as -0.176.
RRIRDRPPRLPRPRPRPIECPRP was tested, and the “shrunken log2 fold change” value was 0.279.
With RRIRLRPPRLPRPRPRPVCWPRP the “shrunken log2 fold change” value was 0.462.
RRIRPRPPRLPRPRPRPVLYPRP was tested, and the “shrunken log2 fold change” value was -0.335.
For RRIRDRPPRLPRPRPRPFLDPRP, the “shrunken log2 fold change” value was 0.431.
RRIRRRPPRLPRPRPRPIYMPRP was tested, and the “shrunken log2 fold change” value was -0.138.
RRIRRRPPRLPRPRPRPTPAPRP was tested, and the “shrunken log2 fold change” value was 1.55.
RRIRDRPPRLPRPRPRPYPAPRP was tested, and the “shrunken log2 fold change” value was -0.15.
In the case of RRIRQRPPRLPRPRPRPFWLPRP, the “shrunken log2 fold change” value is reported as 0.0473.
With RRIRCRPPRLPRPRPRPTQTPRP the “shrunken log2 fold change” value was 0.286.
In the case of RRIRTRPPRLPRPRPRPAYFPRP, the “shrunken log2 fold change” value is reported as 0.0144.
With RRIRNRPPRLPRPRPRPFQAPRP the “shrunken log2 fold change” value was -0.0439.
With RRIRKRPPRLPRPRPRPFYQPRP the “shrunken log2 fold change” value was -0.101.
In the case of RRIRFRPPRLPRPRPRPQIAPRP, the “shrunken log2 fold change” value is reported as 0.111.
In the case of RRIRERPPRLPRPRPRPPMGPRP, the “shrunken log2 fold change” value is reported as -0.107.
RRIRCRPPRLPRPRPRPKLSPRP was tested, and the “shrunken log2 fold change” value was 0.22.
For RRIRTRPPRLPRPRPRPQQLPRP, the “shrunken log2 fold change” value was 1.75.
In the case of RRIRKRPPRLPRPRPRPAHYPRP, the “shrunken log2 fold change” value is reported as 0.123.
RRIRHRPPRLPRPRPRPQILPRP was tested, and the “shrunken log2 fold change” value was -0.0081.
With RRIRTRPPRLPRPRPRPLLTPRP the “shrunken log2 fold change” value was -0.0897.
For RRIRYRPPRLPRPRPRPQCDPRP, the “shrunken log2 fold change” value was -0.529.
In the case of RRIRCRPPRLPRPRPRPTLKPRP, the “shrunken log2 fold change” value is reported as 0.017.
With RRIRVRPPRLPRPRPRPFCIPRP the “shrunken log2 fold change” value was -0.447.
For RRIRMRPPRLPRPRPRPTDVPRP, the “shrunken log2 fold change” value was 0.141.
In the case of RRIRWRPPRLPRPRPRPVMRPRP, the “shrunken log2 fold change” value is reported as 0.0188.
For RRIRNRPPRLPRPRPRPFCTPRP, the “shrunken log2 fold change” value was -0.351.
With RRIRARPPRLPRPRPRPTPCPRP the “shrunken log2 fold change” value was 0.323.
For RRIRHRPPRLPRPRPRPDNLPRP, the “shrunken log2 fold change” value was 0.0139.
RRIRVRPPRLPRPRPRPPNYPRP was tested, and the “shrunken log2 fold change” value was -0.194.
For RRIRMRPPRLPRPRPRPFKTPRP, the “shrunken log2 fold change” value was -0.117.
